Data as given in article PMC4118026.
Where “and” joins values, the source holds several entries; their conditions need not be identical. Equal values may be shown once.

Molecular target: T1, apoptosis-associated speck-like protein containing a CARD (mouse (endogenous in primary cortical astrocytes)), Q9EPB4
T1 chain: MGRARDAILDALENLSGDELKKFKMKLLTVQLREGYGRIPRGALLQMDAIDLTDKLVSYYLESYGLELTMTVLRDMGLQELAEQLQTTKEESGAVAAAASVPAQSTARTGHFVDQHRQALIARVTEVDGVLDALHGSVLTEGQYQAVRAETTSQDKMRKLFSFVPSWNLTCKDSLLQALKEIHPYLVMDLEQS
Assay: cross-linking; astrocytes treated with ATP, LPS or ethanol, lysed in PBS/Triton 0.5%; 8000 x g pellets cross-linked with 2 mM DSS for 30 min at room temperature; 12% SDS-PAGE, blot with anti-mouse ASC
Details: remark: other sources report otherwise

B1: apoptosis-associated speck-like protein containing a CARD, Q9EPB4 1-193 (natural protein)
chain: T1 chain
stoichiometry N: 2 and 3
